Measurements as given in paper PMC7392005, “Fructose-1, 6-bisphosphatase 1 interacts with NF-κB p65 to regulate breast tumorigenesis via PIM2 induced phosphorylation” (Theranostics, 2020).
Values belong to the binder of their own block, whether it stands above or below them.

Columns and labels:
[1] = molecular target: T1, GST-tagged FBP1 (UniProt P09467 1-338); test: pull-down; GST pull-down: purified GST-tagged protein (or GST) mixed with His-tagged protein, both expressed in E. coli BL21 (DE3); details: both partners purified
T1 construct: fructose-1,6-bisphosphatase 1 (FBP1); also called GST-FBP1; source: E. coli BL21 (DE3), purified
T1 sequence (looked up): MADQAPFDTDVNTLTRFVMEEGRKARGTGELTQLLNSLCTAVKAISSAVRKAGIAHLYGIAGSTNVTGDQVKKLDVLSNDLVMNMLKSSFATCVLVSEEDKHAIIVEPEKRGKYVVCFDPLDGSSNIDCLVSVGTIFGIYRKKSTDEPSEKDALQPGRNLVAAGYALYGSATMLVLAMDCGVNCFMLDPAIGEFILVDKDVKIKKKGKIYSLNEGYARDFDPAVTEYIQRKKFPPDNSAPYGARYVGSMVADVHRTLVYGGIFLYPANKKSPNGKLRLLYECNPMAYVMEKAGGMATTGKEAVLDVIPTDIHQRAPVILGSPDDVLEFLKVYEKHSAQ

[2] = molecular target: T2, GST-tagged p65 (UniProt Q04206 1-551); test: as above; details: both partners purified
T2 construct: NF-κB p65 (RelA); also called GST-p65; source: E. coli BL21 (DE3), purified
T2 sequence (Q04206 whole entry): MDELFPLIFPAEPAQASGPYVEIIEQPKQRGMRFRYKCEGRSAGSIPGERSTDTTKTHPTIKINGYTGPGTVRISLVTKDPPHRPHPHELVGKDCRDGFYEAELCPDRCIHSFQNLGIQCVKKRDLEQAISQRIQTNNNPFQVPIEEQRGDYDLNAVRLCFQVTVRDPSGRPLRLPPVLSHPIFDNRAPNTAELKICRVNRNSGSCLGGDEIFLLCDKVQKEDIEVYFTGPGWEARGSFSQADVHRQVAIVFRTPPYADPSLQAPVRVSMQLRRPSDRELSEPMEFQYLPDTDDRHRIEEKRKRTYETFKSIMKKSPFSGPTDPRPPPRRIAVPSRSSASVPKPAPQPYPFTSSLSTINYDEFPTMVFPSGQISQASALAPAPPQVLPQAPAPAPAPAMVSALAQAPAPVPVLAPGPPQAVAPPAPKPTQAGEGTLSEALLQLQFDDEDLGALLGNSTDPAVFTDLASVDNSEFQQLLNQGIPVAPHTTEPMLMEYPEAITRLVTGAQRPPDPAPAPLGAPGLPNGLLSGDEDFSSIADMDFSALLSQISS

- binding result [1]: binds
B1: His-tagged PIM2 (enzyme)
chain: not shown
notes: serine/threonine kinase PIM2; also called His-PIM2; source: E. coli BL21 (DE3), purified

- binding result [2]: binds
B2: His-tagged FBP1 (enzyme, UniProt P09467 1-338, looked up)
chain: T1 sequence (looked up)
notes: fructose-1,6-bisphosphatase 1 (FBP1); also called His-FBP1; source: E. coli BL21 (DE3)
